Test results: PMC3406060

Key:
[1] = molecular target: IRA/IGF1R hybrid receptor (IRA-Luc/IGF1R-YFP) (UniProt P06213)
[2] = molecular target: IRB/IGF1R hybrid receptor (IRB-Luc/IGF1R-YFP) (UniProt P06213)
[3] = molecular target: IRA homodimer (IRA-Luc/IRA-YFP) (UniProt P06213)
[4] = molecular target: IRB homodimer (IRB-Luc/IRB-YFP) (UniProt P06213)
[5] = molecular target: IRA/IGF1R hybrid receptor (IRA-Luc/IGF1R-YFP) (UniProt P06213); remark: listed apart in the source
[6] = molecular target: IRB/IGF1R hybrid receptor (IRB-Luc/IGF1R-YFP) (UniProt P06213); remark: listed apart in the source
[7] = molecular target: IRA homodimer (IRA-Luc/IRA-YFP) (UniProt P06213); remark: listed apart in the source
[8] = molecular target: IRB homodimer (IRB-Luc/IRB-YFP) (UniProt P06213); remark: listed apart in the source
[9] = molecular target: insulin receptor (IR), endogenous in MCF-7 and MDA-MB231 cells (human (endogenous in MCF-7 and MDA-MB231)) (UniProt P06213)

Substance	EC50 of ligand-induced BRET (Luc/YFP on the two ß-subunits) of partially purified receptors, series with M1 and M2 [1] [nM]	EC50 of ligand-induced BRET (Luc/YFP on the two ß-subunits) of partially purified receptors, series with M1 and M2 [2] [nM]	EC50 of ligand-induced BRET (Luc/YFP on the two ß-subunits) of partially purified receptors, series with M1 and M2 [3] [nM]	EC50 of ligand-induced BRET (Luc/YFP on the two ß-subunits) of partially purified receptors, series with M1 and M2 [4] [nM]	EC50 of ligand-induced BRET (Luc/YFP on the two ß-subunits) of partially purified receptors [5] [nM]	EC50 of ligand-induced BRET (Luc/YFP on the two ß-subunits) of partially purified receptors [6] [nM]	EC50 of ligand-induced BRET (Luc/YFP on the two ß-subunits) of partially purified receptors [7] [nM]	EC50 of ligand-induced BRET (Luc/YFP on the two ß-subunits) of partially purified receptors [8] [nM]	EC50 of PIP3 production (BRET, Luc-Akt-PH and membrane YFP) in living MDA-MB231 cells [9] [nM]
Glargine metabolite M1 (A21Gly-insulin) (ligand)	225	147	16.7	9.64					
IGF1 (from UniProt P05019 49-118) (ligand)	4.23	3.05	50.6	130	3.01	2.87	34.4	50	
detemir (B29Lys(e-tetradecanoyl),desB30)-insulin) (ligand)					335	175	5.13	5.24	2.3

Other lines, results leading:

EC50 of ligand-induced BRET (Luc/YFP on the two ß-subunits) of partially purified receptors, series with M1 and M2 [1] [nM]	EC50 of ligand-induced BRET (Luc/YFP on the two ß-subunits) of partially purified receptors, series with M1 and M2 [2] [nM]	EC50 of ligand-induced BRET (Luc/YFP on the two ß-subunits) of partially purified receptors, series with M1 and M2 [3] [nM]	EC50 of ligand-induced BRET (Luc/YFP on the two ß-subunits) of partially purified receptors, series with M1 and M2 [4] [nM]	EC50 of ligand-induced BRET (Luc/YFP on the two ß-subunits) of partially purified receptors [5] [nM]	EC50 of ligand-induced BRET (Luc/YFP on the two ß-subunits) of partially purified receptors [6] [nM]	EC50 of ligand-induced BRET (Luc/YFP on the two ß-subunits) of partially purified receptors [7] [nM]	EC50 of ligand-induced BRET (Luc/YFP on the two ß-subunits) of partially purified receptors [8] [nM]	EC50 of PIP3 production (BRET, Luc-Akt-PH and membrane YFP) in living MDA-MB231 cells [9] [nM]	Substance
315	169	13.8	6.31						Glargine metabolite M2 (A21Gly,B30desThr-insulin) (ligand)
				183	107	1.61	1.64	0.84	glulisine (B3Lys,B29Glu-insulin) (ligand)
